We go through 5 substances from IntAct's records for PubMed 17185412.

The target in one experiment is syt1_mouse Syt1 (UniProt P46096).
A further experiment has as its target syt2_mouse Syt2 (UniProt P46097).

“Botulinum neurotoxin type B (Clostridium botulinum) (from UniProt P10844) W1262L”: the “effect of a mutation on the interaction” value in the experiment with syt1_mouse Syt1 was “decreasing interaction strength”.
Take “Botulinum neurotoxin type B (Clostridium botulinum) (from UniProt P10844) Y1183R”: the “effect of a mutation on the interaction” value in the experiment with syt2_mouse Syt2 and in the experiment with syt1_mouse Syt1 was “decreasing interaction strength” each time.
As to “Botulinum neurotoxin type B (Clostridium botulinum) (from UniProt P10844) K1192E”, the “effect of a mutation on the interaction” value with syt1_mouse Syt1 is “decreasing interaction strength”.
Still for that read-out and setting: the value for “Botulinum neurotoxin type B (Clostridium botulinum) (from UniProt P10844) K1192M” was “decreasing interaction strength”.
In the case of “Botulinum neurotoxin type B (Clostridium botulinum) (from UniProt P10844) V1118D”, the “effect of a mutation on the interaction” value with syt2_mouse Syt2 and in the experiment with syt1_mouse Syt1 was “decreasing interaction strength” each time.
